Here are results for nine molecules from patent publication JP2016028048A (dated 2016).

Changes are numbered by the printed parent chain.

In this assay the target is T1, ヒト組織因子経路インヒビター (human TFPI) (human, UniProt P10646 29-304, limits assumed).
T1 construct: Coated on Maxisorp plates (ELISA) or amine-coupled to a CM5 chip (Biacore); also called ヒトTFPI; hTFPI
T1 sequence (looked up): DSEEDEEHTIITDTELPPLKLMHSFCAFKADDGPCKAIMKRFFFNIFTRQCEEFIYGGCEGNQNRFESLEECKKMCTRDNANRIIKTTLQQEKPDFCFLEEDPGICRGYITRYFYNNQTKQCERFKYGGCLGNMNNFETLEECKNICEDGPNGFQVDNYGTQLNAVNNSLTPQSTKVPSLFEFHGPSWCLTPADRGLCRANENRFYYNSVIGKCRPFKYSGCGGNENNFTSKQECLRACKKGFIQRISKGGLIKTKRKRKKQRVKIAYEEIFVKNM
Put plainly: ELISA, Fab in bacterial lysate on human TFPI-coated plate.

B1: TP-2G4 (Fab, V domains shown)
VH: QVQLVESGGGLVQPGGSLRLSCAASGFTFSSYAMTWVRQAPGKGLEWVSNISYSGSNTYYADSVKGRFTISRDNSKNTLYLQMNSLRAEDTAVYYCARVGYYYGFDYWGQGTLVTVSS
VL: DIELTQPPSVSVAPGQTARISCSGDALRKHYVYWYQQKPGQAPVLVIYGDNNRPSGIPERFSGSNSGNTATLTISGTQAEDEADYYCQSYDKPYPILVFGGGTKLTVLG
notes: Human Fab (HuCal Gold), made in E. coli TG1
As for B1, the binding result is listed as “binds”.

B2: TP-2A2 (Fab, V domains shown)
VH: QVQLVESGGGLVQPGGSLRLSCAASGFTFSNNAMNWVRQAPGKGLEWVSTISYDGSNTYYADSVKGRFTISRDNSKNTLYLQMNSLRAEDTAVYYCARQAGGWTYSYTDVWGQGTLVTVSS
VL: DIELTQPPSVSVAPGQTARISCSGDNIRTYYVHWYQQKPGQAPVVVIYGDSKRPSGIPERFSGSNSGNTATLTISGTQAEDEADYYCQSYDSEADSEVFGGGTKLTVLG
notes: as for B1
In the case of B2, the binding result is listed as “binds”.

B3: TP-2B9 (Fab, V domains shown)
VH: QVQLQQSGPGLVKPSQTLSLTCAISGDSVSSNSAAWGWIRQSPGRGLEWLGMIYHRSKWYNDYAVSVKSRITINPDTSKNQFSLQLNSVTPEDTAVYYCARYSSIGHMDYWGQGTLVTVSS
VL: DIQMTQSPSSLSASVGDRVTITCRASQSIRSYLAWYQQKPGKAPKLLIYKASNLQSGVPSRFSGSGSGTDFTLTISSLQPEDFAVYYCHQYSDSPVTFGQGTKVEIKR
notes: as for B1
Regarding B3, the binding result is recorded as “binds”.

B4: TP-2E3 (Fab, V domains shown)
VH: B3 VH with H55Y, Y102V, S103N, S104Q, I105Y, G106T, H107S, M108S
VL: DIALTQPASVSGSPGQSITISCTGTSSDIGGYNYVSWYQQHPGKAPKLMIYGVNYRPSGVSNRFSGSKSGNTASLTISGLQAEDEADYYCSSADKFTMSIVFGGGTKLTVLG
notes: as for B1
Consider B4, for which the binding result is “binds”.

B5: TP-2F9 (Fab, V domains shown)
VH: QVQLVESGGGLVQPGGSLRLSCAASGFTFYKYAMHWVRQAPGKGLEWVSGIQYDGSYTYYADSVKGRFTISRDNSKNTLYLQMNSLRAEDTAVYYCARYYCKCVDLWGQGTLVTVSS
VL: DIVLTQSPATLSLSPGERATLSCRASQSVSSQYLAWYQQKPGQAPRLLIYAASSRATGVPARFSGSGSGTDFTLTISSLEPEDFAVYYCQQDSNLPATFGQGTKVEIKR
notes: as for B1
Regarding B5, the binding result is reported as “binds”.

B6: TP-2E5 (Fab, V domains shown)
VH: QVQLQQSGPGLVKPSQTLSLTCAISGDSVSSNSAAWSWIRQSPGRGLEWLGMIFYRSKWNNDYAVSVKSRITINPDTSKNQFSLQLNSVTPEDTAVYYCARVNANGYYAYVDLWGQGTLVTVSS
VL: DIQMTQSPSSLSASVGDRVTITCRASQPIYNSLSWYQQKPGKAPKLLIYGVSNLQSGVPSRFSGSGSGTDFTLTISSLQPEDFAVYYCLQVDNLPITFGQGTKVEIKR
notes: as for B1
As for B6, the binding result was “binds”.

B7: TP-2G2 (Fab, V domains shown)
VH: QVQLVESGGGLVQPGGSLRLSCAASGFTFSSYAMNWVRQAPGKGLEWVSAILSDGSSTSYADSVKGRFTISRDNSKNTLYLQMNSLRAEDTAVYYCARYPDWGWYTDVWGQGTLVTVSS
VL: DIELTQPPSVSVAPGQTARISCSGDNIRKFYVHWYQQKPGQAPVLVIYGTNKRPSGIPERFSGSNSGNTATLTISGTQAEDEADYYCQSYDSKFNTVFGGGTKLTVLG
notes: as for B1
As for B7, the binding result was “binds”.

B8: TP-2D7 (Fab, V domains shown)
VH: QVQLQQSGPGLVKPSQTLSLTCAISGDSVSSNSAAWGWIRQSPGRGLEWLGLIYYRSKWYNDYAVSVKSRITINPDTSKNQFSLQLNSVTPEDTAVYYCARFGDTNRNGTDVWGQGTLVTVSS
VL: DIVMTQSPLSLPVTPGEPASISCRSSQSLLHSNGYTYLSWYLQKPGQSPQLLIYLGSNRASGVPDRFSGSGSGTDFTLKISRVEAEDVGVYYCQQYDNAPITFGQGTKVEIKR
notes: as for B1
Regarding B8, the binding result is “binds”.

B9: TP-2C1 (Fab, V domains shown)
VH: QVQLVESGGGLVQPGGSLRLSCAASGFTFSPYVMSWVRQAPGKGLEWVSSISSSSSNTYYADSVKGRFTISRDNSKNTLYLQMNSLRAEDTAVYYCARGDSYMYDVWGQGTLVTVSS
VL: DIELTQPPSVSVAPGQTARISCSGDSIGSYYAHWYQQKPGQAPVLVIYYDSKRPSGIPERFSGSNSGNTATLTISGTQAEDEADYYCQAYTGQSISRVFGGGTKLTVLG
notes: as for B1
B9: the binding result was “binds”.
